Experimental data from PMC9482650, “Quantitative fragmentomics allow affinity mapping of interactomes” (Nature Communications, 2022).

T1: PCLO, Q9Y6V0
T1 sequence (Q9Y6V0 4491-4600, limits assumed, looked up): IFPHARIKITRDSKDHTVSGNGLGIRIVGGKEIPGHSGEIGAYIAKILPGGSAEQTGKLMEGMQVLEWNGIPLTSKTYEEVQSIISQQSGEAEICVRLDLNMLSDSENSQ

T2: SYNJ2BP, P57105
T2 sequence (P57105 8-110, limits assumed, looked up): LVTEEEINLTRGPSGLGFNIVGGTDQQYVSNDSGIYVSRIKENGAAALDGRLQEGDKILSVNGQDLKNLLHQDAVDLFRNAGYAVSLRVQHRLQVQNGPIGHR

T3: RHPN1, Q8TCX5
T3 sequence (Q8TCX5 508-602, limits assumed, looked up): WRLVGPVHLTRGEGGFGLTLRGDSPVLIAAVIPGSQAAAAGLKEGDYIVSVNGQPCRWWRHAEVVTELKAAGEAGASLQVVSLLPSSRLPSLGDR

T4: NHERF3_4, Q5T2W1
T4 sequence (Q5T2W1 373-468, limits assumed, looked up): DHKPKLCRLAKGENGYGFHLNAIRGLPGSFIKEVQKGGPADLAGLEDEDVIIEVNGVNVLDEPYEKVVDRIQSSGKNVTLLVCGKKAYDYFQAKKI

T5: GRIP1_7, Q9Y3R0
T5 sequence (Q9Y3R0 999-1096, limits assumed, looked up): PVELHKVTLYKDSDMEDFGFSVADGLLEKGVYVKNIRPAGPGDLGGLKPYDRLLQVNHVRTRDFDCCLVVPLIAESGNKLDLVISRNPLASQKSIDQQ

T6: MPDZ_5, O75970
T6 sequence (O75970 695-796, limits assumed, looked up): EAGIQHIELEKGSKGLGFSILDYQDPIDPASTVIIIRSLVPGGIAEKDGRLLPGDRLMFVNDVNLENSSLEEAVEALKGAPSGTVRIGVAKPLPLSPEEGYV

T7: SNTA1, Q13424
T7 sequence (Q13424 82-180, limits assumed, looked up): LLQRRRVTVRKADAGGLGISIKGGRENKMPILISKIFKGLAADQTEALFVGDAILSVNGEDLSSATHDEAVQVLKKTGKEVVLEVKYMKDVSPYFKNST

T8: LRRC7, Q96NW7
T8 sequence (Q96NW7 1440-1537, limits assumed, looked up): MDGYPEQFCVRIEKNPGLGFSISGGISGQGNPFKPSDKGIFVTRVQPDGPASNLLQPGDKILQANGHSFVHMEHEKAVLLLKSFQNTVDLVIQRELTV

T9: NHERF3_3, Q5T2W1
T9 sequence (Q5T2W1 238-333, limits assumed, looked up): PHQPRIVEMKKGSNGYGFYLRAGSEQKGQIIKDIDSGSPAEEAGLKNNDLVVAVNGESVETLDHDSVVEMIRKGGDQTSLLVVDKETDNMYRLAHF

T10: TX1BP3, O14907
T10 sequence (O14907 10-122, limits assumed, looked up): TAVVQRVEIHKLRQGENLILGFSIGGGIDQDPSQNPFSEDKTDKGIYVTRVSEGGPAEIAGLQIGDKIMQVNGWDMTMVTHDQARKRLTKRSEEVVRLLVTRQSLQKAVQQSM

T11: MPP7, Q5T2T1
T11 sequence (Q5T2T1 134-230, limits assumed, looked up): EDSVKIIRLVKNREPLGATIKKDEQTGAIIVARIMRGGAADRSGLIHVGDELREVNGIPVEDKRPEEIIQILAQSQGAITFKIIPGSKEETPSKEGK

T12: GRIP1_3, Q9Y3R0
T12 sequence (Q9Y3R0 247-346, limits assumed, looked up): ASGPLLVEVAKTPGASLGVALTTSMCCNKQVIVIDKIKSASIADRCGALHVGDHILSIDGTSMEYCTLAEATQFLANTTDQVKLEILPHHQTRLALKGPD

B1: TRPC5, Q9UL62 (peptide)
chain: GQEEQVTTRL
B2: ASNSD1, Q9NWL6 (peptide)
chain: NLSIEKETKL
B3: LRRC4B, Q9NT99 (peptide)
chain: SKENVQETQI

These binders were tested against T1, PCLO, Q9Y6V0 (assay: holdup assay). Settings: plain residues with an end cap or a label only (N-terminal biotin on a linker: ado-ado).
Parameters: key: below the threshold = too weak to quantify, mostly under pKd 3.1 to 4

Row | Binder | pKd
1 | B1 | below the threshold
2 | B2 | below the threshold
3 | B3 | below the threshold

Each binder was assayed against T2, SYNJ2BP, P57105 (assay: holdup assay). Settings: plain residues with an end cap or a label only (N-terminal biotin on a linker: ado-ado).
Parameters: key: below the threshold = too weak to quantify, mostly under pKd 3.1 to 4

Row | Binder | pKd
4 | B1 | below the threshold
5 | B2 | 3.85
6 | B3 | 4.6

These binders were tested against T3, RHPN1, Q8TCX5 (assay: holdup assay). Settings: plain residues with an end cap or a label only (N-terminal biotin on a linker: ado-ado).
Parameters: key: below the threshold = too weak to quantify, mostly under pKd 3.1 to 4

Row | Binder | pKd
7 | B1 | 4.85
8 | B2 | 4.76
9 | B3 | 5.1

Each binder was assayed against HTRA1, Q92743 (assay: holdup assay). Settings: plain residues with an end cap or a label only (N-terminal biotin on a linker: ado-ado).
Chain of HTRA1, Q92743 (Q92743 360-477): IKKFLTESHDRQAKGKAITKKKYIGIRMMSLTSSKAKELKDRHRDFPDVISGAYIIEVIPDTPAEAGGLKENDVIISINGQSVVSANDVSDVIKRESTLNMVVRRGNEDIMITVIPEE
Parameters: key: below the threshold = too weak to quantify, mostly under pKd 3.1 to 4

Row | Binder | pKd
10 | B1 | 3.92
11 | B2 | below the threshold
12 | B3 | below the threshold

The binders below were run against MAGI2_4, Q86UL8 (assay: holdup assay). Settings: plain residues with an end cap or a label only (N-terminal biotin on a linker: ado-ado).
Chain of MAGI2_4, Q86UL8 (Q86UL8 772-865): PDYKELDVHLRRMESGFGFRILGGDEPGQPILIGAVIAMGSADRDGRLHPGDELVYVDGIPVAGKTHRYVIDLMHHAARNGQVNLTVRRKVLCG
Parameters: key: below the threshold = too weak to quantify, mostly under pKd 3.1 to 4

Row | Binder | pKd
13 | B1 | below the threshold
14 | B2 | below the threshold
15 | B3 | below the threshold

These binders were tested against Inadl_5, Q8NI35 (assay: holdup assay). Settings: plain residues with an end cap or a label only (N-terminal biotin on a linker: ado-ado).
Chain of Inadl_5, Q8NI35 (Q8NI35 673-780): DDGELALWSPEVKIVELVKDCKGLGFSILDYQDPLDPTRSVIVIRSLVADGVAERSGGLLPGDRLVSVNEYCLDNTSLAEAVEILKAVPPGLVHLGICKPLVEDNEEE
Parameters: key: below the threshold = too weak to quantify, mostly under pKd 3.1 to 4

Row | Binder | pKd
16 | B1 | below the threshold
17 | B2 | below the threshold
18 | B3 | below the threshold

These binders were tested against PDZRN4_1, Q6ZMN7 (assay: holdup assay). Settings: plain residues with an end cap or a label only (N-terminal biotin on a linker: ado-ado).
Chain of PDZRN4_1, Q6ZMN7 (Q6ZMN7 213-318): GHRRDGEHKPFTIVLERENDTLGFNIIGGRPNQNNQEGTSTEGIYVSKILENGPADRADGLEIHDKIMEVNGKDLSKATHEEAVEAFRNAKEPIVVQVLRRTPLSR
Parameters: key: below the threshold = too weak to quantify, mostly under pKd 3.1 to 4

Row | Binder | pKd
19 | B1 | 3.64
20 | B2 | 4.83
21 | B3 | 4.18

Each binder was assayed against T4, NHERF3_4, Q5T2W1 (assay: holdup assay). Settings: plain residues with an end cap or a label only (N-terminal biotin on a linker: ado-ado).
Parameters: key: below the threshold = too weak to quantify, mostly under pKd 3.1 to 4

Row | Binder | pKd
22 | B1 | 5.33
23 | B2 | 4.13
24 | B3 | below the threshold

The binders below were run against MAST1, Q9Y2H9 (assay: holdup assay). Settings: plain residues with an end cap or a label only (N-terminal biotin on a linker: ado-ado).
Chain of MAST1, Q9Y2H9 (Q9Y2H9 962-1065): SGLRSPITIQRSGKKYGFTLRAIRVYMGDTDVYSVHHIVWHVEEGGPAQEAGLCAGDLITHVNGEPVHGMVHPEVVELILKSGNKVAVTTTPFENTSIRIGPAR
Parameters: key: below the threshold = too weak to quantify, mostly under pKd 3.1 to 4

Row | Binder | pKd
25 | B1 | 4.8
26 | B2 | 4.73
27 | B3 | 3.97

The binders below were run against DLG5_1, Q8TDM6 (assay: holdup assay). Settings: plain residues with an end cap or a label only (N-terminal biotin on a linker: ado-ado).
Chain of DLG5_1, Q8TDM6 (Q8TDM6 617-713): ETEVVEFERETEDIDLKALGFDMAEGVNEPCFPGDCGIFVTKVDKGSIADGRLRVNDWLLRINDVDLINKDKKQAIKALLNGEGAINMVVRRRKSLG
Parameters: key: below the threshold = too weak to quantify, mostly under pKd 3.1 to 4

Row | Binder | pKd
28 | B1 | below the threshold
29 | B2 | below the threshold
30 | B3 | below the threshold

What follows are binders tested against T5, GRIP1_7, Q9Y3R0 (assay: holdup assay). Settings: plain residues with an end cap or a label only (N-terminal biotin on a linker: ado-ado).
Parameters: key: below the threshold = too weak to quantify, mostly under pKd 3.1 to 4

Row | Binder | pKd
31 | B1 | below the threshold
32 | B2 | below the threshold
33 | B3 | below the threshold

These binders were tested against T6, MPDZ_5, O75970 (assay: holdup assay). Settings: plain residues with an end cap or a label only (N-terminal biotin on a linker: ado-ado).
Parameters: key: below the threshold = too weak to quantify, mostly under pKd 3.1 to 4

Row | Binder | pKd
34 | B1 | below the threshold
35 | B2 | below the threshold
36 | B3 | below the threshold

What follows are binders tested against MAGI2_3, Q86UL8 (assay: holdup assay). Settings: plain residues with an end cap or a label only (N-terminal biotin on a linker: ado-ado).
Chain of MAGI2_3, Q86UL8 (Q86UL8 600-682): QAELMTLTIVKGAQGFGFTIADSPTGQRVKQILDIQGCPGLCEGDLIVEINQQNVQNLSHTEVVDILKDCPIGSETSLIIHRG
Parameters: key: below the threshold = too weak to quantify, mostly under pKd 3.1 to 4

Row | Binder | pKd
37 | B1 | below the threshold
38 | B2 | below the threshold
39 | B3 | 3.63

Each binder was assayed against LIMK2, P53671 (assay: holdup assay). Settings: plain residues with an end cap or a label only (N-terminal biotin on a linker: ado-ado).
Chain of LIMK2, P53671 (P53671 143-248): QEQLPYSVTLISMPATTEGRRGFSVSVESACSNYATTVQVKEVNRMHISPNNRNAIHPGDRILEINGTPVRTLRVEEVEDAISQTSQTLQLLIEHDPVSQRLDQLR
Parameters: key: below the threshold = too weak to quantify, mostly under pKd 3.1 to 4

Row | Binder | pKd
40 | B1 | below the threshold
41 | B2 | below the threshold
42 | B3 | below the threshold

These binders were tested against DLG2_3, Q15700 (assay: holdup assay). Settings: plain residues with an end cap or a label only (N-terminal biotin on a linker: ado-ado).
Parameters: key: below the threshold = too weak to quantify, mostly under pKd 3.1 to 4

Row | Binder | pKd
43 | B1 | below the threshold
44 | B2 | 3.77
45 | B3 | 4.17

These binders were tested against T7, SNTA1, Q13424 (assay: holdup assay). Settings: plain residues with an end cap or a label only (N-terminal biotin on a linker: ado-ado).
Parameters: key: below the threshold = too weak to quantify, mostly under pKd 3.1 to 4

Row | Binder | pKd
46 | B1 | 3.91
47 | B2 | 4.9
48 | B3 | 4.77

The binders below were run against GRIP2_7, Q9C0E4 (assay: holdup assay). Settings: plain residues with an end cap or a label only (N-terminal biotin on a linker: ado-ado).
Chain of GRIP2_7, Q9C0E4 (Q9C0E4 934-1023): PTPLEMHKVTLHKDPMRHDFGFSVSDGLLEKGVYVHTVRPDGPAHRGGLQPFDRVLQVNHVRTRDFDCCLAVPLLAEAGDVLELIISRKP
Parameters: key: below the threshold = too weak to quantify, mostly under pKd 3.1 to 4

Row | Binder | pKd
49 | B1 | below the threshold
50 | B2 | below the threshold
51 | B3 | below the threshold

The binders below were run against T8, LRRC7, Q96NW7 (assay: holdup assay). Settings: plain residues with an end cap or a label only (N-terminal biotin on a linker: ado-ado).
Parameters: key: below the threshold = too weak to quantify, mostly under pKd 3.1 to 4

Row | Binder | pKd
52 | B1 | below the threshold
53 | B2 | below the threshold
54 | B3 | below the threshold

What follows are binders tested against T9, NHERF3_3, Q5T2W1 (assay: holdup assay). Settings: plain residues with an end cap or a label only (N-terminal biotin on a linker: ado-ado).
Parameters: key: below the threshold = too weak to quantify, mostly under pKd 3.1 to 4

Row | Binder | pKd
55 | B1 | 4.65
56 | B2 | 4.67
57 | B3 | below the threshold

Each binder was assayed against T10, TX1BP3, O14907 (assay: holdup assay). Settings: plain residues with an end cap or a label only (N-terminal biotin on a linker: ado-ado).
Parameters: key: below the threshold = too weak to quantify, mostly under pKd 3.1 to 4

Row | Binder | pKd
58 | B1 | 3.69
59 | B2 | 3.53
60 | B3 | below the threshold

The binders below were run against T11, MPP7, Q5T2T1 (assay: holdup assay). Settings: plain residues with an end cap or a label only (N-terminal biotin on a linker: ado-ado).
Parameters: key: below the threshold = too weak to quantify, mostly under pKd 3.1 to 4

Row | Binder | pKd
61 | B1 | below the threshold
62 | B2 | below the threshold
63 | B3 | below the threshold

The binders below were run against T12, GRIP1_3, Q9Y3R0 (assay: holdup assay). Settings: plain residues with an end cap or a label only (N-terminal biotin on a linker: ado-ado).
Parameters: key: below the threshold = too weak to quantify, mostly under pKd 3.1 to 4

Row | Binder | pKd
64 | B1 | below the threshold
65 | B2 | below the threshold
66 | B3 | below the threshold

What follows are binders tested against DLG2_2, Q15700 (assay: holdup assay). Settings: plain residues with an end cap or a label only (N-terminal biotin on a linker: ado-ado).
Parameters: key: below the threshold = too weak to quantify, mostly under pKd 3.1 to 4

Row | Binder | pKd
67 | B1 | below the threshold
68 | B2 | 3.5
69 | B3 | 4.47

These binders were tested against GRID2IP_2, A4D2P6 (assay: holdup assay). Settings: plain residues with an end cap or a label only (N-terminal biotin on a linker: ado-ado).
Chain of GRID2IP_2, A4D2P6 (A4D2P6 272-370): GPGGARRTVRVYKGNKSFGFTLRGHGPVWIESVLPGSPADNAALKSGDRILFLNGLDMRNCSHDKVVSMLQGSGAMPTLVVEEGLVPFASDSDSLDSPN
Parameters: key: below the threshold = too weak to quantify, mostly under pKd 3.1 to 4

Row | Binder | pKd
70 | B1 | 4.44
71 | B2 | 4.26
72 | B3 | 3.86

The binders below were run against DLG1_2, Q12959 (assay: holdup assay). Settings: plain residues with an end cap or a label only (N-terminal biotin on a linker: ado-ado).
Chain of DLG1_2, Q12959 (Q12959 314-412): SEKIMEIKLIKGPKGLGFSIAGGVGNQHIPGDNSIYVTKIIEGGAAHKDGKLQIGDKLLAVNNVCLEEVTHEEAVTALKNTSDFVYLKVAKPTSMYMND
Parameters: key: below the threshold = too weak to quantify, mostly under pKd 3.1 to 4

Row | Binder | pKd
73 | B1 | below the threshold
74 | B2 | 3.93
75 | B3 | 4.64
